Assay results taken from the supplement of paper PMC11865577.

How the values were obtained:
Assay in all cases: pull-down binding Z-score (relative to library population); higher = stronger binding
[1] = system: TO-3-N3 (biotin conjugate); conditions: RNA library: Library-2
Method in brief: (§1)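 Biotin-conjugated small molecule (100 pmol) on streptavidin beads was incubated with 1 μg of heat-folded Cy5- or Cy3-end-labelled RNA library in phosphate/NaCl/KCl buffer at 25 °C for 60 min. Following three washes, RNA was eluted with hot SDS and hybridised at 55.5 °C for 20 h to a DNA barcode microarray. The binding value is a Z-score computed from the library mean and standard deviation, after subtraction of beads without compound and averaging of barcoded replicate probes with the highest and lowest excluded.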

[2] = system: TO-N3-2 (biotin conjugate); conditions: RNA library: Library-2
Method in brief: as §1

[3] = system: G-clamp-N3 (biotin conjugate); conditions: RNA library: Library-1 (pre-miRNA loops + repeats)
Method in brief: as §1

TO-N3 (biotin conjugate) = conditions: RNA library: Library-2
Method in brief: as §1

[4] = system: TO-3-N3-2 (biotin conjugate); conditions: RNA library: Library-2
Method in brief: as §1

Sequence	pull-down binding Z-score [1]	pull-down binding Z-score [2]	pull-down binding Z-score [3]	pull-down binding Z-score (TO-N3 (biotin conjugate))	pull-down binding Z-score [4]
UGGCUGUAGGGCAGCAGUCA [hsa-mir-8079]	1.29	0.479	0.959	1.16	0.456
UGGCUUCUGCCUCUUUCUUUGUGGAAGCCA [hsa-mir-4269]	0.255	-1.13	1.04	-0.118	-0.369
UGGCUUGCACCGUGACUCCCUCUCACCAAGCAAGUGUC [hsa-mir-4440]	-0.387	0.607	-0.837	0.0846	0.0231
UGGGAGGUAAGAGCUCUUCACCCUUCA [hsa-mir-197]	-0.46	0.638	-0.817	-0.119	-0.132
UGGGAGUGAUCCCAACAGCUGAGCUCCCU [hsa-mir-7106]	0.772	0.529	0.114	0.756	-0.0877
UGGGCAGUUCUUCUGCUGG [hsa-mir-1587]	0.21	0.377	0.403	0.149	0.0756
UGGGCCAAG [hsa-mir-3620]	0.746	0.487	-0.636	0.825	0.193
UGGGCUCCCCUAGACUAGGACUCCA [hsa-mir-1825]	-0.367	0.508	0.254	-0.37	-0.507
UGGGUAGAAAGUAUUAUUCUAUUCA [hsa-mir-664b]	0.0201	-0.83	-0.0123	-0.28	-0.0975
UGGGUAGGAAUAUCCUGGAUCCCCU [hsa-mir-3189]	-0.0266	0.501	-0.575	0.102	0.312
UGGGUCAAGGAGCCCA [hsa-mir-4530]	-0.163	-0.3	0.476	-0.3	-0.211
UGGGUGGAUCCUCUAUUUCCUUACGUGGGCCACUGG [hsa-mir-432]	0.45	0.845	0.632	0.729	-0.013
UGGGUUAAGCCGAGCUGG [hsa-mir-4507]	0.478	1.05	1.25	0.872	0.297
UGGGUUGAACUGUGUGGACAAGCUCA [hsa-mir-181b-1]	-0.111	0.631	-0.166	0.366	-0.042
UGGGUUGUGUCAGUGUCAGACCUC [hsa-mir-146a]	-0.496	0.838	-0.421	0.187	-0.00346
UGGGUUUGAGUCUGAAUCAACUCA [hsa-mir-181b-2]	-0.728	-0.572	-0.649	-0.805	-0.254
UGGUAUCCUGACCG [hsa-mir-1973]	0.627	0.287	-0.747	0.408	-0.269
UGGUCAGAUAUCCCAU [hsa-mir-8060]	-0.323	-0.0919	-1.4	-0.262	-0.195
UGGUCAGGCGGCU [hsa-mir-3917]	-0.142	0.442	0.0721	0.0412	-0.061

Sequence	pull-down binding Z-score [1]	pull-down binding Z-score [2]	pull-down binding Z-score [3]	pull-down binding Z-score (TO-N3 (biotin conjugate))	pull-down binding Z-score [4]
UGGUGCAAUAAUUGG [hsa-mir-1302-7]	0.418	0.245	1.95	0.4	0.492
UGGUGGAGAUGGAGAGCCCUGAGCCUCCA [hsa-mir-6777]	0.164	1.17	0.173	0.727	-0.0154
UGGUGGGAGAGGAGCCCCACUGUGGAAGUCUGACCCCCACA [hsa-mir-6785]	1.05	1.86	-0.814	1.64	1.01
UGGUGGGGGCCGGGGCAGGCCCAGCGAAA [hsa-mir-648]	1.96	1.94	1.1	2.27	1.37
UGGUGGUGAAUUCAUGAGUCGCCA [hsa-mir-3115]	-0.509	-0.62	0.372	-0.671	-0.498
UGGUUACGUGUUUGAUGGUUAAUCA [hsa-mir-376a-2]	-0.155	-0.0517	1.55	-0.0926	-0.0388
UGGUUAGCUUUUUUUUUUUUUUGAGAUGGAGUCUGGCUC [hsa-mir-8086]	-0.554	-0.598	-0.608	-0.772	0.519
UGGUUGAAUAUGUGAAUGGCAUCG [hsa-mir-449a]	-0.0496	0.601	0.694	0.153	0.0695
UGGUUUCACUA [hsa-mir-3713]	0.624	-0.526	-1.64	0.378	-0.427
UGGUUUGACACAGAGCUAAAUCA [hsa-mir-5007]	0.00148	-0.172	-0.866	0.596	0.0372
UGUAAAAUGUAAUAACAUUUCUUAUGUUUAAAACACUUUACA [hsa-mir-4801]	-0.755	-1.14	-0.257	-0.783	-0.401
UGUAAAUAACUACAAUUCUCUUAACUCCGUAGCAGUUGC [hsa-mir-7844]	-0.267	0.177	-1.5	-0.11	-0.0721
UGUAAGUUUGCGAUGAGACACUACA [hsa-mir-144]	0.0531	0.341	-0.844	0.405	0.297
UGUACAGGUGAGCGGAUGUUCUGCACA [hsa-mir-3120]	1.53	1.57	0.0407	1.67	0.681
UGUACGCUUUAUUUGUGACGUAGG [hsa-mir-1197]	-0.438	0.0488	-0.171	-0.195	-0.0204
UGUAUAGUAUUAUUCAAUACC [hsa-mir-1912]	-0.222	-0.694	0.737	-0.445	-0.0289
UGUAUAUAGCAUAUGUGUAUACAUACACACACACACACACACACACACA [hsa-mir-8485]	0.396	-0.143	-1.14	0.167	-0.16
UGUAUGUGUAAAUACAUAUCCACACA [hsa-mir-4789]	0.0268	-0.589	-1.45	-0.285	-0.00888
